This is an account of results in patent US20220064303A1 (GIGAGEN, published 2022).

The target of experiment [1] is T1, Cyno CTLA4 (cyno, UniProt G7PL88 36-161).
T1 construct: Soluble antigen used as analyte in BLI
Put plainly: BLI (Octet Red96), mAb on AHC biosensor, antigen as analyte. The method, then:
The binding specificity and affinity of each full-length antibody towards CTLA-4 were determined using biolayer interferometry (BLI) and/or surface plasmon resonance (SPR). Anti-cyno CTLA-4 and anti-mouse CTLA-4 affinities were tested using ForteBio (BLI). Anti-human CTLA-4 affinities were measured using Carterra (SPR).
For BLI, antibodies were loaded onto an Anti-Human IgG Fc (AHC) biosensor using the Octet Red96 system (ForteBio). Loaded biosensors were dipped into antigen dilutions beginning at 300 nM, with 6 serial dilutions at 1:3. Kinetic analysis was performed using a 1:1 binding model and global fitting.

Experiment [2] has as its target CTLA-4 on CTLA-4 effector cells (CTLA-4 Blockade Bioassay, Promega) (UniProt P16410 36-223, limits assumed). Briefly: cell-based or functional assay.

CTLA-4 on CTLA-4 effector cells (CTLA-4 Blockade Bioassay, Promega), sequence (P16410 36-223 limits assumed): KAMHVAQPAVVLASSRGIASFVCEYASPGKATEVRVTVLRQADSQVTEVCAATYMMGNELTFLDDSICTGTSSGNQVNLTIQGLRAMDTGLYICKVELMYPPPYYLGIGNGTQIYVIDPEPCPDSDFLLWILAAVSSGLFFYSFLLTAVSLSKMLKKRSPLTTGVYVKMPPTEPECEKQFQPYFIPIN
T1 sequence (G7PL88 entry or part of it): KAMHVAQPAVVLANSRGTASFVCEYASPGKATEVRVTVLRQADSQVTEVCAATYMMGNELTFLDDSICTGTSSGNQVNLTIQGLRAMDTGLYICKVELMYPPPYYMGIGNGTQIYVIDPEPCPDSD

B1: Ipilimumab (antibody, V domains shown)
VH: QVQLVESGGGVVQPGRSLRLSCAASGFTFSSYTMHWVRQAPGKGLEWVTFISYDGNNKYYADSVKGRFTISRDNSKNTLYLQMNSLRAEDTAIYYCARTGWLGPFDYWGQGTLVTVSS
VL: not shown
In experiment [1], B1 displayed a Kd of 1.3 nM.

B2: A23 (antibody, V domains shown)
VH: QVQLVQSGAEVKKPGASVKVSCKASGYTFTSYGISWVRQAPGQGLEWMGWISAYNGNTYYAQKFQGRVTMTTDTSTSTAYVELRSLRSDDTAVYYCARVTGRDAFDIWGQGTMVTVSS
VL: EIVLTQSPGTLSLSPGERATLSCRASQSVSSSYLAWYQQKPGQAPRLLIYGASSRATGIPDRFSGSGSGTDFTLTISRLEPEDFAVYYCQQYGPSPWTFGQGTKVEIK
As for B2, the “Promega assay % inhibition” value in experiment [2] turned out to be 0%.

B3: A28 (antibody, V domains shown)
VH: QVQLVESGGGVVQPGRSLGLSCAASGFTFSTYGMHWVRQAPGKGLEWVAVTLYDGSNKYYADSVKGRFTISRDNSKNTLYLQMNSLRAEDTAVYYCARASLTGSFDYWGQGTLVTVSS
VL: not shown
Turning to B3, the “Promega assay % inhibition” value in experiment [2] is 0%.
